According to paper PMC6992768, “Loss-of-function mutations in UDP-Glucose 6-Dehydrogenase cause recessive developmental epileptic encephalopathy” (Nature Communications, 2020):

B1: UGDH A44V (enzyme, human, UniProt O60701 1-494, looked up)
chain: MFEIKKICCIGAGYVGGPTCSVIAHMCPEIRVTVVDVNESRINVWNSPTLPIYEPGLKEVVESCRGKNLFFSTNIDDAIKEADLVFISVNTPTKTYGMGKGRAADLKYIEACARRIVQNSNGYKIVTEKSTVPVRAAESIRRIFDANTKPNLNLQVLSNPEFLAEGTAIKDLKNPDRVLIGGDETPEGQRAVQALCAVYEHWVPREKILTTNTWSSELSKLAANAFLAQRISSINSISALCEATGADVEEVATAIGMDQRIGNKFLKASVGFGGSCFQKDVLNLVYLCEALNLPEVARYWQQVIDMNDYQRRRFASRIIDSLFNTVTDKKIAILGFAFKKDTGDTRESSSIYISKYLMDEGAHLHIYDPKVPREQIVVDLSHPGVSEDDQVSRLVTISKDPYEACDGAHAVVICTEWDMFKELDYERIHKKMLKPAFIFDGRRVLDGLHNELQTIGFQIETIGKKVSSKRIPYAPSGEIPKFSLQDPPNKKPKV
notes: human UDP-glucose 6-dehydrogenase (UGDH) with the patient variant A44V, made from WT-UGDH pET28a; Germline variant found in patients (families 1, 11, 13); Eluted mainly as a dimer by gel filtration; also called p.A44V; p.Ala44Val
B2: UDP-Glucose 6-Dehydrogenase (UGDH), wild type (enzyme, human, UniProt O60701 1-494, looked up)
chain: MFEIKKICCIGAGYVGGPTCSVIAHMCPEIRVTVVDVNESRINAWNSPTLPIYEPGLKEVVESCRGKNLFFSTNIDDAIKEADLVFISVNTPTKTYGMGKGRAADLKYIEACARRIVQNSNGYKIVTEKSTVPVRAAESIRRIFDANTKPNLNLQVLSNPEFLAEGTAIKDLKNPDRVLIGGDETPEGQRAVQALCAVYEHWVPREKILTTNTWSSELSKLAANAFLAQRISSINSISALCEATGADVEEVATAIGMDQRIGNKFLKASVGFGGSCFQKDVLNLVYLCEALNLPEVARYWQQVIDMNDYQRRRFASRIIDSLFNTVTDKKIAILGFAFKKDTGDTRESSSIYISKYLMDEGAHLHIYDPKVPREQIVVDLSHPGVSEDDQVSRLVTISKDPYEACDGAHAVVICTEWDMFKELDYERIHKKMLKPAFIFDGRRVLDGLHNELQTIGFQIETIGKKVSSKRIPYAPSGEIPKFSLQDPPNKKPKV
notes: human UDP-glucose 6-dehydrogenase (UGDH), codon-optimised E. coli expression construct WT-UGDH pET28a; also called UGDH^WT; WT-UGDH
B3: UGDH T325D (enzyme, human, UniProt O60701 1-494, looked up)
chain: MFEIKKICCIGAGYVGGPTCSVIAHMCPEIRVTVVDVNESRINAWNSPTLPIYEPGLKEVVESCRGKNLFFSTNIDDAIKEADLVFISVNTPTKTYGMGKGRAADLKYIEACARRIVQNSNGYKIVTEKSTVPVRAAESIRRIFDANTKPNLNLQVLSNPEFLAEGTAIKDLKNPDRVLIGGDETPEGQRAVQALCAVYEHWVPREKILTTNTWSSELSKLAANAFLAQRISSINSISALCEATGADVEEVATAIGMDQRIGNKFLKASVGFGGSCFQKDVLNLVYLCEALNLPEVARYWQQVIDMNDYQRRRFASRIIDSLFNDVTDKKIAILGFAFKKDTGDTRESSSIYISKYLMDEGAHLHIYDPKVPREQIVVDLSHPGVSEDDQVSRLVTISKDPYEACDGAHAVVICTEWDMFKELDYERIHKKMLKPAFIFDGRRVLDGLHNELQTIGFQIETIGKKVSSKRIPYAPSGEIPKFSLQDPPNKKPKV
notes: human UDP-glucose 6-dehydrogenase (UGDH) with T325D, made from WT-UGDH pET28a
B4: UGDH ∆132 (enzyme, human, UniProt O60701 1-494, looked up)
chain: MFEIKKICCIGAGYVGGPTCSVIAHMCPEIRVTVVDVNESRINAWNSPTLPIYEPGLKEVVESCRGKNLFFSTNIDDAIKEADLVFISVNTPTKTYGMGKGRAADLKYIEACARRIVQNSNGYKIVTEKSTPVRAAESIRRIFDANTKPNLNLQVLSNPEFLAEGTAIKDLKNPDRVLIGGDETPEGQRAVQALCAVYEHWVPREKILTTNTWSSELSKLAANAFLAQRISSINSISALCEATGADVEEVATAIGMDQRIGNKFLKASVGFGGSCFQKDVLNLVYLCEALNLPEVARYWQQVIDMNDYQRRRFASRIIDSLFNTVTDKKIAILGFAFKKDTGDTRESSSIYISKYLMDEGAHLHIYDPKVPREQIVVDLSHPGVSEDDQVSRLVTISKDPYEACDGAHAVVICTEWDMFKELDYERIHKKMLKPAFIFDGRRVLDGLHNELQTIGFQIETIGKKVSSKRIPYAPSGEIPKFSLQDPPNKKPKV
notes: source: purified recombinant; expression not described for this mutant

Target: the molecule itself
Experiment: SEC; analytical gel filtration of each apoprotein alone; 1x PBS with 1 mM DTT, 0.5 mL/min, Superdex gel filtration column, elution followed by A280; peaks compared with known hexamer, dimer and monomer elution times

Protein	stoichiometry N	binding result
B1	2	
B2		binds
B3		binds
B4		binds
